The text below walks through data of PMC4791427, “Structural dynamics of the yeast Shwachman-Diamond syndrome protein (Sdo1) on the ribosome and its implication in the 60S subunit maturation” (Protein & Cell, 2016).

Sequences and labels used below:
B2: uL16 (RPL10), in the 60S subunit (natural protein, S. cerevisiae (endogenous in S288C), UniProt P41805 1-221, looked up)
chain: MARRPARCYRYQKNKPYPKSRYNRAVPDSKIRIYDLGKKKATVDEFPLCVHLVSNELEQLSSEALEAARICANKYMTTVSGRDAFHLRVRVHPFHVLRINKMLSCAGADRLQQGMRGAWGKPHGLAARVDIGQIIFSVRTKDSNKDVVVEGLRRARYKFPGQQKIILSKKWGFTNLDRPEYLKKREAGEVKDDGAFVKFLSKKGSLENNIREFPEYFAAQA
notes: ribosomal protein uL16 (RPL10) of S. cerevisiae; met Sdo1p as a subunit of the purified 60S particle, not as an isolated protein; source: endogenous, part of the 60S subunit purified from S. cerevisiae S288C

Experiment [1] concerns the target Sdo1p domain I-II (1-169) (S. cerevisiae) (UniProt Q07953). Description: BLI; Octet RED96; Sdo1p variants (2 μg/mL) immobilised on Anti-Penta-HIS biosensors; 60S subunit 1.75-48 nmol/L in 25 mmol/L Hepes-KOH pH 7.5, 100 mmol/L KCl, 2.5 mmol/L MgCl2; association and dissociation 240 s each.
The target in experiment [2] is T1, Sdo1p, full-length (1-250) (S. cerevisiae, UniProt Q07953 1-250).
T1 construct: Sdo1p, the SBDS homologue of S. cerevisiae, full-length construct, residues 1-250; cloned into pET21b; also called Sdo1p-FL; FL; source: E. coli BL21 (DE3), purified (Ni-NTA, gel filtration); not shown: His6, C-terminal, kept
T1 sequence (looked up): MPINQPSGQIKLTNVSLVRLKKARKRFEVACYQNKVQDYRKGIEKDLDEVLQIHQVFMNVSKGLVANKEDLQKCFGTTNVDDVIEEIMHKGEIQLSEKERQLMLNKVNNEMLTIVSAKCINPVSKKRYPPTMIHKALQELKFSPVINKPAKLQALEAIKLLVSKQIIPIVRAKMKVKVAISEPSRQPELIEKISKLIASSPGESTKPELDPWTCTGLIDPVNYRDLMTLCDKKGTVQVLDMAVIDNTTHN
Described as above.

Experiment [3] deals with The truncated domain I, II and II-III. The description is as above.
Experiment [4] concerns the target mature 60S ribosomal subunit of S. cerevisiae (S. cerevisiae (endogenous in S288C)) (UniProt P41805). The experiment is described as follows: cryo-EM structure; 60S subunit (100 nmol/L) with 20-fold (dimers, 14 Å map) or 10-fold (monomers, 9 Å map) excess of full-length Sdo1p, 30°C 15 min, without crosslinking.
In experiment [5] the target is T1, Sdo1p, full-length (1-250). Description: cross-linking; CX-MS: 50 pmol 60S with full-length or truncated Sdo1p at 1:20, 25 mmol/L Hepes-KOH pH 7.5, 100 mmol/L KCl, 2.5 mmol/L MgCl2; DSS or BS3, room temperature 1 h; trypsin, LC-MS/MS, pLink FDR <5%. Conditions: both partners purified.
Experiment [6] concerns the target B2. Described as above. The following applies: both partners purified.

For “mature 60S ribosomal subunit of S. cerevisiae (from UniProt P41805 1-221) (complex)”, the results for the Kd in experiment [1], in experiment [2] and in experiment [3] were 0.015 µM, 0.018 µM and 0.025 to 0.04 µM, respectively.

B1: Sdo1p, full-length (1-250) (natural protein)
chain: MPINQPSGQIKLTNVSLVRLKKARKRFEVACYQNKVQDYRKGIEKDLDEVLQIHQVFMNVSKGLVANKEDLQKCFGTTNVDDVIEEIMHKGEIQLSEKERQLMLNKVNNEMLTIVSAKCINPVSKKRYPPTMIHKALQELKFSPVINKPAKLQALEAIKLLVSKQIIPIVRAKMKVKVAISEPSRQPELIEKISKLIASSPGESTKPELDPWTCTGLIDPVNYRDLMTLCDKKGTVQVLDMAVIDNTTHN
B1 came in with a stoichiometry N in experiment [4] of 1.
On to B2, for which the binding result in experiment [5] is on record as “binds”.

B3: Sdo1p domain I-II (1-169) (domain or fragment, S. cerevisiae, UniProt Q07953 1-169, looked up)
chain: MPINQPSGQIKLTNVSLVRLKKARKRFEVACYQNKVQDYRKGIEKDLDEVLQIHQVFMNVSKGLVANKEDLQKCFGTTNVDDVIEEIMHKGEIQLSEKERQLMLNKVNNEMLTIVSAKCINPVSKKRYPPTMIHKALQELKFSPVINKPAKLQALEAIKLLVSKQIIPI
notes: Sdo1p of S. cerevisiae, domains I-II, residues 1-169; cloned into pET21b; also called domains I-II; Sdo1p-I-II; source: E. coli BL21 (DE3), purified (Ni-NTA, gel filtration); not shown: His6, C-terminal, kept
As to B3, in experiment [6], the binding result is “binds”.
